B1: Pistol ribozyme (parent)
chain: GGGUCGUUGUUCCAUAAUCGCGUGGAUAUGGCACGCAAGUUUCUACCGGGCACCGUAAAUGUCCGACUGGAGCCGUUCGGGCGGCUAUAAACAGACCUCAGGCCCGAAGCGUGGCGGCACCUGCCGCCGGUGGUAAAAAAGAUCGGAAGAGCACACGUCU

Variants of: B1
Assay: aptazyme ON/OFF ratio, guanine; higher = stronger switching; co-transcriptional cleavage with and without guanine

Variant | aptazyme ON/OFF ratio
G9U U10G C12A C13G | 1.17
G9U U10G C12A C13U | 1.45
G9U U10G C12A C13A | 0.843
G9U U10C U11A C12U C13A | 1.49
G9U U10C U11A C12U C13U | 1.54
G9U U10C U11A C12U C13G | 1.35
G9U U10C U11A C12A C13U | 1.57
G9U U10C U11A C12A C13A | 1.53
G9U U10C U11A C12A C13G | 1.24
G9C U11A C12G | 1.47
G9C U11A C12A | 1.34
G9C U11A C12U | 1.53
G9U U11C C12A C13A | 1.48
G9U U11C C12A C13G | 1.36
G9U U11C C12A C13U | 1.36
G9U U10G U11A | 1.2
G9U U10G U11C | 1.28
G9U U10G U11G | 1.55
G9C U11C C13G | 1.03
G9C U11C C13U | 1.04
G9C U11C C13A | 1.06
G9U U10A U11G C12A C13A | 1.14
G9U U10A U11G C12A C13U | 1.25
G9U U10A U11G C12A C13G | 1.37

Variant | aptazyme ON/OFF ratio
G9U U10C C12U C13G | 1.34
G9U U10C C12U C13U | 1.63
G9U U10C C12U C13A | 1.69
G9U C12G | 1.75
G9U C12A | 1.08
G9U C12U | 2.37
G9U U10A C12G C13U | 1.21
G9U U10A C12G C13A | 1.07
G9U U10A C12G C13G | 1.33
G9U U10G U11G C12G C13A | 1.25
G9U U10G U11G C12G C13G | 1.31
G9U U10G U11G C12G C13U | 1.27
G9U U10C U11G C13A | 1.36
G9U U10C U11G C13U | 1.52
G9U U10C U11G C13G | 1.18
G9U U10C C12A C13A | 1.39
G9U U10C C12A C13U | 1.38
G9U U10C C12A C13G | 1.61
G9U U11A C13A | 1.48
G9U U11A C13G | 1.13
G9U U11A C13U | 1.44
G9U U11A C12G | 1.55
G9U U11A C12U | 1.47
G9U U11A C12A | 2.63

Variant | aptazyme ON/OFF ratio
G9U U11C | 2.53
G9U U11A | 1.24
G9U U11G | 1.74
G9C U11C C12U C13G | 1.01
G9C U11C C12U C13A | 1.09
G9C U11C C12U C13U | 1.14
G9C U10G U11G C12G C13G | 1.13
G9C U10G U11G C12G C13A | 1.1
G9C U10G U11G C12G C13U | 1.1
G9U U10C U11G C12U | 2.12
G9U U10C U11G C12A | 1.13
G9U U10C U11G C12G | 1.2
G9U U10G U11A C12A | 1.63
G9U U10G U11A C12G | 2.23
G9U U10G U11A C12U | 1.3
G9U U10C U11G C12A C13U | 1.08
G9U U10C U11G C12A C13G | 1.22
G9U U10C U11G C12A C13A | 1.34
G9U U10G U11G C12A C13A | 1.28
G9U U10G U11G C12A C13G | 1.13
G9U U10G U11G C12A C13U | 1.38
G9U U10G U11A C12A C13U | 1.37
G9U U10G U11A C12A C13A | 1.56
G9U U10G U11A C12A C13G | 1.7

Variant | aptazyme ON/OFF ratio
G9U U11C C12G C13U | 1.68
G9U U11C C12G C13A | 1.3
G9U U11C C12G C13G | 1.28
G9U U10A U11G C13G | 1.22
G9U U10A U11G C13U | 1.72
G9U U10A U11G C13A | 1.56
G9U U10G U11A C12G C13A | 1.18
G9U U10G U11A C12G C13G | 1.08
G9U U10G U11A C12G C13U | 1.07
G9U U10A U11C C13U | 1.17
G9U U10A U11C C13A | 1.53
G9U U10A U11C C13G | 1.04
G9U U10C U11A C12G C13U | 1.27
G9U U10C U11A C12G C13A | 1.48
G9U U10C U11A C12G C13G | 1.43
G9U U10C C13U | 1.72
G9U U10C C13G | 1.13
G9U U10C C13A | 1.22
G9U U10C U11C C13A | 1.04
G9U U10C U11C C13G | 1.06
G9U U10C U11C C13U | 1.03
G9U U11G C12U C13G | 1.43
G9U U11G C12U C13U | 1.29
G9U U11G C12U C13A | 1.43

Variant | aptazyme ON/OFF ratio
G9U U10G C12G C13G | 1.41
G9U U10G C12G C13U | 1.23
G9U U10G C12G C13A | 1.44
G9C U10G U11G C12A | 1.18
G9C U10G U11G C12U | 1.13
G9C U10G U11G C12G | 1.16
G9U U10A C12U C13U | 1.06
G9U U10A C12U C13G | 1.1
G9U U10A C12U C13A | 0.769
G9C U11G C12A C13U | 1.13
G9C U11G C12A C13A | 1.14
G9C U11G C12A C13G | 1.03
G9U U11G C13G | 1.21
G9U U11G C13U | 1.7
G9U U11G C13A | 1.37
G9U U10A U11G C12U C13G | 1.47
G9U U10A U11G C12U C13A | 1.21
G9U U10A U11G C12U C13U | 1.7
G9U U10A U11C C12G C13A | 1.3
G9U U10A U11C C12G C13G | 0.978
G9U U10A U11C C12G C13U | 1.47
G9U | 4.29
G9C U11A C12G C13A | 1.2
G9C U11A C12G C13U | 1.22

Variant | aptazyme ON/OFF ratio
G9C U11A C12G C13G | 1.24
G9U U10C C12G | 2.12
G9U U10C C12A | 1.77
G9U U10C C12U | 1.71
G9C U10G U11C C12U | 1.08
G9C U10G U11C C12G | 1.17
G9C U11C C12G C13U | 1.19
G9C U11C C12G C13A | 1.13
G9C U11C C12G C13G | 1.09
G9C U11A C12A C13U | 1.3
G9C U11A C12A C13G | 1.12
G9C U11A C12A C13A | 1.26
G9U U10G U11C C13G | 1.1
G9U U10G U11C C13A | 1.26
G9U U10G U11C C13U | 1.14
G9U U10G U11C C12G C13A | 1.27
G9U U10G U11C C12G C13U | 1.27
G9U U10G U11C C12G C13G | 1.06
G9U U10C U11C C12A C13U | 1.2
G9U U10C U11C C12A C13G | 1.27
G9U U10C U11C C12A C13A | 1.15
G9U C12G C13U | 1.43
G9U C12G C13A | 1.52
G9U C12G C13G | 1.27

Variant | aptazyme ON/OFF ratio
G9C U10G U11C C12G C13A | 1.17
G9C U10G U11C C12G C13U | 1.15
G9C U10G U11C C12G C13G | 1.24
G9U U10A U11C C12A C13A | 1.06
G9U U10A U11C C12A C13U | 1.41
G9U U10A U11C C12A C13G | 0.991
G9U U10G U11A C13U | 1.08
G9U U10G U11A C13G | 1.14
G9U U10G U11A C13A | 1.13
G9U U11G C12G | 2.82
G9U U11G C12A | 2.21
G9U U11G C12U | 1.99
G9U U11A C12U C13G | 1.5
G9U U11A C12U C13U | 1.65
G9U U11A C12U C13A | 1.02
G9U U10C U11C C12U C13G | 1.09
G9U U10C U11C C12U C13A | 1.11
G9U U10C U11C C12U C13U | 1.18
G9C U11G C12U | 1.84
G9C U11G C12A | 1.11
G9C U11G C12G | 1.27
G9U U10C U11G C12U C13U | 1.41
G9U U10C U11G C12U C13G | 1.34
